Tested on: peptide library, one residue held at a place counted from the Y acceptor
Assay: relative phosphorylation of the sub-library (ratio to the mean residue at this position); higher = residue favoured
Method in brief: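 Peptide library mixtures, biotinylated and centred on Tyr, each fixed one residue at one position from −5 to +5. Purified recombinant kinases were incubated with them for 90 min in 384-well plates alongside 50 μM ATP and γ-32P-ATP, and the captured, rinsed peptides on streptavidin membranes were measured by phosphorimaging and ImageQuant. Normalization divided each position's intensities by the sum of its 18 randomized residues (16 for the Ser/Thr-free library) and multiplied by that number, so that values give phosphorylation relative to the mean randomized residue.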

Chain of SRMS, construct: aa221-486, human (Q9H3Y6 221-486, looked up): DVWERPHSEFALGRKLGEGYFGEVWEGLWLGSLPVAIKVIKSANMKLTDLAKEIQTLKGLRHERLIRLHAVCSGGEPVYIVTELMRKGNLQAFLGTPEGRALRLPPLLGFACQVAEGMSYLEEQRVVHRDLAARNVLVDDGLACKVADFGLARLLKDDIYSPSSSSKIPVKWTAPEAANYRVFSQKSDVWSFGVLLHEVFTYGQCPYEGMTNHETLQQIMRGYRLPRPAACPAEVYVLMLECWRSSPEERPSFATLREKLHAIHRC

## SRMS, construct: aa221-486, human (from UniProt Q9H3Y6)
A fixed, at +1
  relative phosphorylation: 1.61
A fixed, at +2
  relative phosphorylation: 0.852
A fixed, at +3
  relative phosphorylation: 0.745
A fixed, at +4
  relative phosphorylation: 0.969
A fixed, at +5
  relative phosphorylation: 1.04
A fixed, at -1
  relative phosphorylation: 0.678
A fixed, at -2
  relative phosphorylation: 1.08
A fixed, at -3
  relative phosphorylation: 0.923
A fixed, at -4
  relative phosphorylation: 1.13
A fixed, at -5
  relative phosphorylation: 1.02
D fixed, at +1
  relative phosphorylation: 1.27
D fixed, at +2
  relative phosphorylation: 1.37
D fixed, at +3
  relative phosphorylation: 0.647
D fixed, at +4
  relative phosphorylation: 1.09
D fixed, at +5
  relative phosphorylation: 1.1
D fixed, at -1
  relative phosphorylation: 0.76
D fixed, at -2
  relative phosphorylation: 1.3
D fixed, at -3
  relative phosphorylation: 1.33
D fixed, at -4
  relative phosphorylation: 1.22
D fixed, at -5
  relative phosphorylation: 1.14
E fixed, at +1
  relative phosphorylation: 2.77
E fixed, at +2
  relative phosphorylation: 1.87
E fixed, at +3
  relative phosphorylation: 0.602
E fixed, at +4
  relative phosphorylation: 1.41
E fixed, at +5
  relative phosphorylation: 1.23
E fixed, at -1
  relative phosphorylation: 0.764
E fixed, at -2
  relative phosphorylation: 1.61
E fixed, at -3
  relative phosphorylation: 1.88
E fixed, at -4
  relative phosphorylation: 1.18
E fixed, at -5
  relative phosphorylation: 1.07
F fixed, at +1
  relative phosphorylation: 0.567
F fixed, at +2
  relative phosphorylation: 0.976
F fixed, at +3
  relative phosphorylation: 1.42
F fixed, at +4
  relative phosphorylation: 0.922
F fixed, at +5
  relative phosphorylation: 0.996
F fixed, at -1
  relative phosphorylation: 1.49
F fixed, at -2
  relative phosphorylation: 0.718
F fixed, at -3
  relative phosphorylation: 1.05
F fixed, at -4
  relative phosphorylation: 1.1
F fixed, at -5
  relative phosphorylation: 1.01
G fixed, at +1
  relative phosphorylation: 0.832
G fixed, at +2
  relative phosphorylation: 0.583
G fixed, at +3
  relative phosphorylation: 0.964
G fixed, at +4
  relative phosphorylation: 1.15
G fixed, at +5
  relative phosphorylation: 1.18
G fixed, at -1
  relative phosphorylation: 0.296
G fixed, at -2
  relative phosphorylation: 1.01
G fixed, at -3
  relative phosphorylation: 1.07
G fixed, at -4
  relative phosphorylation: 1.08
G fixed, at -5
  relative phosphorylation: 1.18
H fixed, at +1
  relative phosphorylation: 0.66
H fixed, at +2
  relative phosphorylation: 0.783
H fixed, at +3
  relative phosphorylation: 0.837
H fixed, at +4
  relative phosphorylation: 1.11
H fixed, at +5
  relative phosphorylation: 0.897
H fixed, at -1
  relative phosphorylation: 1.13
H fixed, at -2
  relative phosphorylation: 0.924
H fixed, at -3
  relative phosphorylation: 0.961
H fixed, at -4
  relative phosphorylation: 0.842
H fixed, at -5
  relative phosphorylation: 0.87
I fixed, at +1
  relative phosphorylation: 1.26
I fixed, at +2
  relative phosphorylation: 1.07
I fixed, at +3
  relative phosphorylation: 2.19
I fixed, at +4
  relative phosphorylation: 0.812
I fixed, at +5
  relative phosphorylation: 0.864
I fixed, at -1
  relative phosphorylation: 2.65
I fixed, at -2
  relative phosphorylation: 0.963
I fixed, at -3
  relative phosphorylation: 0.778
I fixed, at -4
  relative phosphorylation: 0.816
I fixed, at -5
  relative phosphorylation: 0.921
K fixed, at +1
  relative phosphorylation: 0.273
K fixed, at +2
  relative phosphorylation: 0.451
K fixed, at +3
  relative phosphorylation: 0.291
K fixed, at +4
  relative phosphorylation: 0.736
K fixed, at +5
  relative phosphorylation: 0.714
K fixed, at -1
  relative phosphorylation: 0.317
K fixed, at -2
  relative phosphorylation: 0.605
K fixed, at -3
  relative phosphorylation: 0.62
K fixed, at -4
  relative phosphorylation: 0.767
K fixed, at -5
  relative phosphorylation: 0.91
L fixed, at +1
  relative phosphorylation: 0.788
L fixed, at +2
  relative phosphorylation: 1.07
L fixed, at +3
  relative phosphorylation: 1.56
L fixed, at +4
  relative phosphorylation: 0.795
L fixed, at +5
  relative phosphorylation: 0.92
L fixed, at -1
  relative phosphorylation: 1.98
L fixed, at -2
  relative phosphorylation: 0.921
L fixed, at -3
  relative phosphorylation: 0.839
L fixed, at -4
  relative phosphorylation: 1.03
L fixed, at -5
  relative phosphorylation: 0.919
M fixed, at +1
  relative phosphorylation: 1.12
M fixed, at +2
  relative phosphorylation: 1.01
M fixed, at +3
  relative phosphorylation: 1.31
M fixed, at +4
  relative phosphorylation: 1.13
M fixed, at +5
  relative phosphorylation: 1.02
M fixed, at -1
  relative phosphorylation: 1.2
M fixed, at -2
  relative phosphorylation: 0.837
M fixed, at -3
  relative phosphorylation: 1.03
M fixed, at -4
  relative phosphorylation: 0.991
M fixed, at -5
  relative phosphorylation: 0.995
N fixed, at +1
  relative phosphorylation: 0.539
N fixed, at +2
  relative phosphorylation: 1.17
N fixed, at +3
  relative phosphorylation: 0.534
N fixed, at +4
  relative phosphorylation: 0.818
N fixed, at +5
  relative phosphorylation: 0.958
N fixed, at -1
  relative phosphorylation: 0.564
N fixed, at -2
  relative phosphorylation: 1.08
N fixed, at -3
  relative phosphorylation: 1.26
N fixed, at -4
  relative phosphorylation: 0.945
N fixed, at -5
  relative phosphorylation: 1.08
P fixed, at +1
  relative phosphorylation: 0.16
P fixed, at +2
  relative phosphorylation: 0.742
P fixed, at +3
  relative phosphorylation: 1
P fixed, at +4
  relative phosphorylation: 1.27
P fixed, at +5
  relative phosphorylation: 1.59
P fixed, at -1
  relative phosphorylation: 0.546
P fixed, at -2
  relative phosphorylation: 1.22
P fixed, at -3
  relative phosphorylation: 0.923
P fixed, at -4
  relative phosphorylation: 1.23
P fixed, at -5
  relative phosphorylation: 1.21
Q fixed, at +1
  relative phosphorylation: 1.2
Q fixed, at +2
  relative phosphorylation: 0.857
Q fixed, at +3
  relative phosphorylation: 0.847
Q fixed, at +4
  relative phosphorylation: 1.05
Q fixed, at +5
  relative phosphorylation: 0.891
Q fixed, at -1
  relative phosphorylation: 0.591
Q fixed, at -2
  relative phosphorylation: 1.05
Q fixed, at -3
  relative phosphorylation: 0.819
Q fixed, at -4
  relative phosphorylation: 1.12
Q fixed, at -5
  relative phosphorylation: 1.01
R fixed, at +1
  relative phosphorylation: 0.361
R fixed, at +2
  relative phosphorylation: 0.635
R fixed, at +3
  relative phosphorylation: 0.397
R fixed, at +4
  relative phosphorylation: 0.871
R fixed, at +5
  relative phosphorylation: 0.768
R fixed, at -1
  relative phosphorylation: 0.351
R fixed, at -2
  relative phosphorylation: 0.576
R fixed, at -3
  relative phosphorylation: 0.671
R fixed, at -4
  relative phosphorylation: 0.867
R fixed, at -5
  relative phosphorylation: 0.946
S fixed, at +1
  relative phosphorylation: 1.12
S fixed, at +2
  relative phosphorylation: 1.07
S fixed, at +3
  relative phosphorylation: 0.784
S fixed, at +4
  relative phosphorylation: 0.971
S fixed, at +5
  relative phosphorylation: 1
S fixed, at -1
  relative phosphorylation: 0.5
S fixed, at -2
  relative phosphorylation: 1.12
S fixed, at -3
  relative phosphorylation: 1.04
S fixed, at -4
  relative phosphorylation: 0.882
S fixed, at -5
  relative phosphorylation: 0.971
T fixed, at +1
  relative phosphorylation: 1.12
T fixed, at +2
  relative phosphorylation: 1.26
T fixed, at +3
  relative phosphorylation: 1.01
T fixed, at +4
  relative phosphorylation: 0.923
T fixed, at +5
  relative phosphorylation: 1
T fixed, at -1
  relative phosphorylation: 1.26
T fixed, at -2
  relative phosphorylation: 0.998
T fixed, at -3
  relative phosphorylation: 1.01
T fixed, at -4
  relative phosphorylation: 0.754
T fixed, at -5
  relative phosphorylation: 0.879
V fixed, at +1
  relative phosphorylation: 1.35
V fixed, at +2
  relative phosphorylation: 1.07
V fixed, at +3
  relative phosphorylation: 1.6
V fixed, at +4
  relative phosphorylation: 0.884
V fixed, at +5
  relative phosphorylation: 0.896
V fixed, at -1
  relative phosphorylation: 1.83
V fixed, at -2
  relative phosphorylation: 1.13
V fixed, at -3
  relative phosphorylation: 0.792
V fixed, at -4
  relative phosphorylation: 0.849
V fixed, at -5
  relative phosphorylation: 0.903
W fixed, at +1
  relative phosphorylation: 1.01
W fixed, at +2
  relative phosphorylation: 1.16
W fixed, at +3
  relative phosphorylation: 1.27
W fixed, at +4
  relative phosphorylation: 1.09
W fixed, at +5
  relative phosphorylation: 0.942
W fixed, at -1
  relative phosphorylation: 1.1
W fixed, at -2
  relative phosphorylation: 0.856
W fixed, at -3
  relative phosphorylation: 0.994
W fixed, at -4
  relative phosphorylation: 1.2
W fixed, at -5
  relative phosphorylation: 0.962
pThr fixed, at +1
  relative phosphorylation: 2.26
pThr fixed, at +2
  relative phosphorylation: 2.43
pThr fixed, at +3
  relative phosphorylation: 0.579
pThr fixed, at +4
  relative phosphorylation: 1.07
pThr fixed, at +5
  relative phosphorylation: 0.972
pThr fixed, at -1
  relative phosphorylation: 1.2
pThr fixed, at -2
  relative phosphorylation: 1.19
pThr fixed, at -3
  relative phosphorylation: 1.02
pThr fixed, at -4
  relative phosphorylation: 0.958
pThr fixed, at -5
  relative phosphorylation: 1.03
pTyr fixed, at +1
  relative phosphorylation: 2.12
pTyr fixed, at +2
  relative phosphorylation: 3.06
pTyr fixed, at +3
  relative phosphorylation: 1.02
pTyr fixed, at +4
  relative phosphorylation: 1.47
pTyr fixed, at +5
  relative phosphorylation: 1.07
pTyr fixed, at -1
  relative phosphorylation: 1.38
pTyr fixed, at -2
  relative phosphorylation: 1.44
pTyr fixed, at -3
  relative phosphorylation: 1.51
pTyr fixed, at -4
  relative phosphorylation: 1.27
pTyr fixed, at -5
  relative phosphorylation: 1.21

Reference: the supplement of paper PMC11136658
